Data as given in patent US20080207517A1 (INSTITUT PASTEUR, published 2008).

Biological target: the molecule itself
Assay: gel filtration (Superdex 75) at 10 µM, self-association
Method: The oligomeric states of peptides were determined by filtration as described in Traincard et al., 2003. In brief, 500 μl samples were loaded on a SUPERDEX™ 75 HR 10/30 column equilibrated in 50 mM Tris-HCl pH 8.0 containing 200 mM NaCl and 0.1 mM DDM, at a constant flow rate of 0.4 ml/min. The presence of the DDM detergent was added in the equilibrium buffer to minimize the adsorption in the column and to increase the peptide recovery. The column was calibrated in the same equilibrium buffer with blue dextran 2000 (void volume), dithioerythritol (total volume), bovine serum albumin (67 kDa, Rs=35.2 Å), ovalbumine (43 kDa, Rs=27.5 Å), chymotrypsinogen A (25 kDa, Rs=21.1 Å), ribonuclease A (13.7 kDa, Rs=16.4 Å), cytochrome C (12.4 kDa, Rs=17.7 Å) and aprotinin (6.5 KDa, Rs=13.5 Å).
The antennapedia sequence is a protein transduction domain (PTD) which adopts an alpha-helical amphiphatic structure (Prochiantz, 2000, Curr. Opin. Cell Biol.). […] To examine the effect of N-fusion of the antennapedia peptide on the oligomerization properties of the CC2 and the LZ peptides, the present inventors analyzed peptides containing or not containing the antennapedia sequence at their N-terminus by gel filtration. […]

B1: LZ (WT) (peptide)
peptide: Ac-LKAQADIYKADFQAERHAREKLVEKKEYLQEQLEQLQREFNKL-NH2
notes: Forms a dimer at 10 uM in gel filtration; also called LZ peptide; LZ wild type
  binding result: binds
